Earlier results on one substance are cited in publication PMC6289173.

The target in the data set is endophilin (UniProt O35179).

As for endophilin (from UniProt O35179), the Kd (usually the concentration at which binding is half-saturated) is 10 µM.
